In the RNAGym collection of RNA variant scans (doi:10.1021/acssynbio.7b00057):

B1: Pistol ribozyme (parent)
chain: GGGUCGUUGUUCCAUAAUCGCGUGGAUAUGGCACGCAAGUUUCUACCGGGCACCGUAAAUGUCCGACUGGAGCCGUUCGGGCGGCUAUAAACAGACCUCAGGCCCGAAGCGUGGCGGCACCUGCCGCCGGUGGUAAAAAAGAUCGGAAGAGCACACGUCU

Variants of: B1
Assay: aptazyme ON/OFF ratio, guanine; higher = stronger switching; co-transcriptional cleavage with and without guanine

Row | Variant | aptazyme ON/OFF ratio
1 | GGGUCGUCGCCAGAUAAUCGCGUGGAUAUGGCACGCAAGUUUCUACCGGGCACCGUAAAUGUCCGACUGGAGCCGUUCGGGCGGCUAUAAACAGACCUCAGGCCCGAAGCGUGGCGGCACCUGCCGCCGGUGGUAAAAAAGAUCGGAAGAGCACACGUCU [U8C U10C U11C C12A C13G] | 1.33
2 | GGGUCGUCGCCAUAUAAUCGCGUGGAUAUGGCACGCAAGUUUCUACCGGGCACCGUAAAUGUCCGACUGGAGCCGUUCGGGCGGCUAUAAACAGACCUCAGGCCCGAAGCGUGGCGGCACCUGCCGCCGGUGGUAAAAAAGAUCGGAAGAGCACACGUCU [U8C U10C U11C C12A C13U] | 1.36
3 | GGGUCGUCGCCAAAUAAUCGCGUGGAUAUGGCACGCAAGUUUCUACCGGGCACCGUAAAUGUCCGACUGGAGCCGUUCGGGCGGCUAUAAACAGACCUCAGGCCCGAAGCGUGGCGGCACCUGCCGCCGGUGGUAAAAAAGAUCGGAAGAGCACACGUCU [U8C U10C U11C C12A C13A] | 1.32
4 | GGGUCGUCGCGAAAUAAUCGCGUGGAUAUGGCACGCAAGUUUCUACCGGGCACCGUAAAUGUCCGACUGGAGCCGUUCGGGCGGCUAUAAACAGACCUCAGGCCCGAAGCGUGGCGGCACCUGCCGCCGGUGGUAAAAAAGAUCGGAAGAGCACACGUCU [U8C U10C U11G C12A C13A] | 1.17
5 | GGGUCGUCGCGAGAUAAUCGCGUGGAUAUGGCACGCAAGUUUCUACCGGGCACCGUAAAUGUCCGACUGGAGCCGUUCGGGCGGCUAUAAACAGACCUCAGGCCCGAAGCGUGGCGGCACCUGCCGCCGGUGGUAAAAAAGAUCGGAAGAGCACACGUCU [U8C U10C U11G C12A C13G] | 1.21
6 | GGGUCGUCGCCGCAUAAUCGCGUGGAUAUGGCACGCAAGUUUCUACCGGGCACCGUAAAUGUCCGACUGGAGCCGUUCGGGCGGCUAUAAACAGACCUCAGGCCCGAAGCGUGGCGGCACCUGCCGCCGGUGGUAAAAAAGAUCGGAAGAGCACACGUCU [U8C U10C U11C C12G] | 1.18
7 | GGGUCGUCGCCUCAUAAUCGCGUGGAUAUGGCACGCAAGUUUCUACCGGGCACCGUAAAUGUCCGACUGGAGCCGUUCGGGCGGCUAUAAACAGACCUCAGGCCCGAAGCGUGGCGGCACCUGCCGCCGGUGGUAAAAAAGAUCGGAAGAGCACACGUCU [U8C U10C U11C C12U] | 1.44
8 | GGGUCGUCGCCGUAUAAUCGCGUGGAUAUGGCACGCAAGUUUCUACCGGGCACCGUAAAUGUCCGACUGGAGCCGUUCGGGCGGCUAUAAACAGACCUCAGGCCCGAAGCGUGGCGGCACCUGCCGCCGGUGGUAAAAAAGAUCGGAAGAGCACACGUCU [U8C U10C U11C C12G C13U] | 1.3
9 | GGGUCGUCGCCGAAUAAUCGCGUGGAUAUGGCACGCAAGUUUCUACCGGGCACCGUAAAUGUCCGACUGGAGCCGUUCGGGCGGCUAUAAACAGACCUCAGGCCCGAAGCGUGGCGGCACCUGCCGCCGGUGGUAAAAAAGAUCGGAAGAGCACACGUCU [U8C U10C U11C C12G C13A] | 1.29
10 | GGGUCGUCGCCGGAUAAUCGCGUGGAUAUGGCACGCAAGUUUCUACCGGGCACCGUAAAUGUCCGACUGGAGCCGUUCGGGCGGCUAUAAACAGACCUCAGGCCCGAAGCGUGGCGGCACCUGCCGCCGGUGGUAAAAAAGAUCGGAAGAGCACACGUCU [U8C U10C U11C C12G C13G] | 1.35
11 | GGGUCGUCGCCUAAUAAUCGCGUGGAUAUGGCACGCAAGUUUCUACCGGGCACCGUAAAUGUCCGACUGGAGCCGUUCGGGCGGCUAUAAACAGACCUCAGGCCCGAAGCGUGGCGGCACCUGCCGCCGGUGGUAAAAAAGAUCGGAAGAGCACACGUCU [U8C U10C U11C C12U C13A] | 1.23
12 | GGGUCGUCGCCUGAUAAUCGCGUGGAUAUGGCACGCAAGUUUCUACCGGGCACCGUAAAUGUCCGACUGGAGCCGUUCGGGCGGCUAUAAACAGACCUCAGGCCCGAAGCGUGGCGGCACCUGCCGCCGGUGGUAAAAAAGAUCGGAAGAGCACACGUCU [U8C U10C U11C C12U C13G] | 1.26
13 | GGGUCGUCGCCUUAUAAUCGCGUGGAUAUGGCACGCAAGUUUCUACCGGGCACCGUAAAUGUCCGACUGGAGCCGUUCGGGCGGCUAUAAACAGACCUCAGGCCCGAAGCGUGGCGGCACCUGCCGCCGGUGGUAAAAAAGAUCGGAAGAGCACACGUCU [U8C U10C U11C C12U C13U] | 1.28
14 | GGGUCGUCGCGCCAUAAUCGCGUGGAUAUGGCACGCAAGUUUCUACCGGGCACCGUAAAUGUCCGACUGGAGCCGUUCGGGCGGCUAUAAACAGACCUCAGGCCCGAAGCGUGGCGGCACCUGCCGCCGGUGGUAAAAAAGAUCGGAAGAGCACACGUCU [U8C U10C U11G] | 1.42
15 | GGGUCGUCGCGACAUAAUCGCGUGGAUAUGGCACGCAAGUUUCUACCGGGCACCGUAAAUGUCCGACUGGAGCCGUUCGGGCGGCUAUAAACAGACCUCAGGCCCGAAGCGUGGCGGCACCUGCCGCCGGUGGUAAAAAAGAUCGGAAGAGCACACGUCU [U8C U10C U11G C12A] | 1.15
16 | GGGUCGUCGCCCUAUAAUCGCGUGGAUAUGGCACGCAAGUUUCUACCGGGCACCGUAAAUGUCCGACUGGAGCCGUUCGGGCGGCUAUAAACAGACCUCAGGCCCGAAGCGUGGCGGCACCUGCCGCCGGUGGUAAAAAAGAUCGGAAGAGCACACGUCU [U8C U10C U11C C13U] | 1.08
17 | GGGUCGUCGCCCAAUAAUCGCGUGGAUAUGGCACGCAAGUUUCUACCGGGCACCGUAAAUGUCCGACUGGAGCCGUUCGGGCGGCUAUAAACAGACCUCAGGCCCGAAGCGUGGCGGCACCUGCCGCCGGUGGUAAAAAAGAUCGGAAGAGCACACGUCU [U8C U10C U11C C13A] | 1.08
18 | GGGUCGUCGCCCGAUAAUCGCGUGGAUAUGGCACGCAAGUUUCUACCGGGCACCGUAAAUGUCCGACUGGAGCCGUUCGGGCGGCUAUAAACAGACCUCAGGCCCGAAGCGUGGCGGCACCUGCCGCCGGUGGUAAAAAAGAUCGGAAGAGCACACGUCU [U8C U10C U11C C13G] | 1.19
